The values below come from publication PMC3568533.

In test [1] the target is CYP3A4 K421A (N-terminus truncated) (human) (UniProt P08684).
Test [2] addresses CYP3A4 wild-type (N-terminus truncated) (human) (UniProt P08684).
Test [3] has as its target CYP3A4 K96A (N-terminus truncated) (human) (UniProt P08684).
The target of test [4] is CYP3A4 K421A (N-terminus truncated) (human) (UniProt P08684). Put plainly: spectral titration.
In test [5] the target is CYP3A4 wild-type (N-terminus truncated) (human) (UniProt P08684). Put plainly: spectral titration.
Test [6] concerns the target CYP3A4 K96A (N-terminus truncated) (human) (UniProt P08684). Nature of the test: spectral titration.
The target in test [7] is CYP3A4 K421A (N-terminus truncated) (human) (UniProt P08684). The source holds these as a separate data set.
The target in test [8] is CYP3A4 wild-type (N-terminus truncated) (human) (UniProt P08684). This is another data set of the same source.
Test [9] deals with CYP3A4 K96A (N-terminus truncated) (human) (UniProt P08684). The source holds these as a separate data set.

For “Histidine-tagged recombinant human cyt b5 (commercial holo b5) (from UniProt P00167 1-134) (natural protein)”, the Ratio of Vmax + b5/− b5, testosterone 6β-hydroxylation, CYP:CPR:cyt b5 1:2:1 in test [1] is 2; in test [2], 1.7; in test [3] it was 1.3.

As usually defined, the Kd is a measure of binding affinity in units of concentration. A lower Kd goes with a tighter complex. With “reconstituted holo b5 (human cyt b5 made in-house) (from UniProt P00167 1-134) (natural protein)”, the Kd worked out at 287 nM in test [4], 140 nM in [5] and 346 nM in [6].

B1: rat cytochrome P450 reductase (enzyme)
chain: MGDSHEDTSATMPEAVAEEVSLFSTTDMVLFSLIVGVLTYWFIFRKKKEEIPEFSKIQTTAPPVKESSFVEKMKKTGRNIIVFYGSQTGTAEEFANRLSKDAHRYGMRGMSADPEEYDLADLSSLPEIDKSLVVFCMATYGEGDPTDNAQDFYDWLQETDVDLTGVKFAVFGLGNKTYEHFNAMGKYVDQRLEQLGAQRIFELGLGDDDGNLEEDFITWREQFWPAVCEFFGVEATGEESSIRQYELVVHEDMDVAKVYTGEMGRLKSYENQKPPFDAKNPFLAAVTANRKLNQGTERHLMHLELDISDSKIRYESGDHVAVYPANDSALVNQIGEILGADLDVIMSLNNLDEESNKKHPFPCPTTYRTALTYYLDITNPPRTNVLYELAQYASEPSEQEHLHKMASSSGEGKELYLSWVVEARRHILAILQDYPSLRPPIDHLCELLPRLQARYYSIASSSKVHPNSVHICAVAVEYEAKSGRVNKGVATSWLRAKEPAGENGGRALVPMFVRKSQFRLPFKSTTPVIMVGPGTGIAPFMGFIQERAWLREQGKEVGETLLYYGCRRSDEDYLYREELARFHKDGALTQLNVAFSREQAHKVYVQHLLKRDREHLWKLIHEGGAHIYVCGDARNMAKDVQNTFYDIVAEFGPMEHTQAVDYVKKLMTKGRYSLDVWS
As to B1, the values for the apparent K'm,CPR of TST 6β-hydroxylation at varying CPR concentrations in test [7], in test [8] and in test [9] were 70 nM, 41 nM and 91 nM, respectively.
